Reference: IntAct's records for PubMed 18477474

B1: Ras-related protein Rab-38 (Mus musculus), Q8QZZ8 (parent)
chain: MQTPHKEHLYKLLVIGDLGVGKTSIIKRYVHQNFSSHYRATIGVDFALKVLHWDPETVVRLQLWDIAGQERFGNMTRVYYREAMGAFIVFDVTRPATFEAVAKWKNDLDSKLTLPNGKPVSVVLLANKCDQGKDVLMNNGLKMDQFCKEHGFVGWFETSAKENINIDEASRCLVKHILANECDLLESIEPDIVKPHLTSPKVVSCSGCAKS
partner: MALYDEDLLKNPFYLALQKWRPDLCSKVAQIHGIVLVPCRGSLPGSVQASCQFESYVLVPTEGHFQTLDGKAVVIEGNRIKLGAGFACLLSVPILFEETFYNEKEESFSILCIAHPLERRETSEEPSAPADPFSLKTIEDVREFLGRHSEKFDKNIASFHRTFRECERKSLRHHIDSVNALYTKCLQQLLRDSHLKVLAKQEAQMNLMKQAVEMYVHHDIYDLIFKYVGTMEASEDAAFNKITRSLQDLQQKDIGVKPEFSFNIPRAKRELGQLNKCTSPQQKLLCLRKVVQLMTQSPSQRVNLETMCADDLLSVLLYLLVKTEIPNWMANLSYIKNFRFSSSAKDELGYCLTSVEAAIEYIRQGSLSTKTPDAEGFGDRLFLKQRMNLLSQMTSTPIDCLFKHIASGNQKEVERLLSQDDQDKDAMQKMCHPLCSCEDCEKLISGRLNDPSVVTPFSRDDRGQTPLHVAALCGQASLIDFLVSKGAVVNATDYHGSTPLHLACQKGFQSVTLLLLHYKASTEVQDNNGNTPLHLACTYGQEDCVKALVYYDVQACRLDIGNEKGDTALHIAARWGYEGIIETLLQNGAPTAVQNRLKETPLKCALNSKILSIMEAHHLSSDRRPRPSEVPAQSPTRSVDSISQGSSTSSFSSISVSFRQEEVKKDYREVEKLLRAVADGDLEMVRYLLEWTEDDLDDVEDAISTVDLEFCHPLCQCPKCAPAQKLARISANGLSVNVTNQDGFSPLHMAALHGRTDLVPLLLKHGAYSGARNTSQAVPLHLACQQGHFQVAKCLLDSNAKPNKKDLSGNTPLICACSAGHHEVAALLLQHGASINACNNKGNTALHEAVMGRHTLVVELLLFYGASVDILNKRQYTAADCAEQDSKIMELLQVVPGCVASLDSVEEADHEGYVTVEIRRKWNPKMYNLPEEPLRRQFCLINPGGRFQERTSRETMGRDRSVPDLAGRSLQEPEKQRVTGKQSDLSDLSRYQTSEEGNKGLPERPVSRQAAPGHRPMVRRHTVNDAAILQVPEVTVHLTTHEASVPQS

Variants of: B1
Conditions: with anr27_mouse Ankrd27, Q3UMR0

Row | effect of a mutation on the interaction | Variant
1 | disrupting interaction | MQTPHKEHLYKLLVIGDLGVGKNSIIKRYVHQNFSSHYRATIGVDFALKVLHWDPETVVRLQLWDIAGQERFGNMTRVYYREAMGAFIVFDVTRPATFEAVAKWKNDLDSKLTLPNGKPVSVVLLANKCDQGKDVLMNNGLKMDQFCKEHGFVGWFETSAKENINIDEASRCLVKHILANECDLLESIEPDIVKPHLTSPKVVSCSGCAKS [T23N]
